Substrate in the data set: CCCCCCCCCCc1c(C)c(O)c(OC)c(OC)c1O
Description: steady-state cytochrome c reduction, spectroscopic, Michaelis-Menten fit. Type of data set: biochemical, Rhodobacter capsulatus. Particulars: 20 μM bovine heart cytochrome c, 50 mM Tris pH 8.0, 0.01% DDM, 100 mM NaCl, DBH2 0.5-20 μM, Qo site, turnover given as Vmax.

B1: cytochrome bc1 (R. capsulatus bc1 complex) (Rhodobacter capsulatus) (protein)
chain 1: MSGIPHDHYEPKTGIEKWLHDRLPIVGLVYDTIMIPTPKNLNWWWIWGIVLAFTLVLQIVTGIVLAIDYTPHVDLAFASVEHIMRDVNGGWAMRYIHANGASLFFLAVYIHIFRGLYYGSYKAPREITWIVGMVIYLLMMGTAFMGYVLPWGQMSFWGATVITGLFGAIPGIGPSIQAWLLGGPAVDNATLNRFFSLHYLLPFVIAALVAIHIWAFHTTGNNNPTGVEVRRTSKADAEKDTLPFWPYFVIKDLFALALVLLGFFAVVAYMPNYLGHPDNYIQANPLSTPAHIVPEWYFLPFYAILRAFAADVWVVILVDGLTFGIVDAKFFGVIAMFGAIAVMALAPWLDTSKVRSGAYRPKFRMWFWFLVLDFVVLTWVGAMPTEYPYDWISLIASTYWFAYFLVILPLLGATEKPEPIPASIEEDFNSHYGNPAE
chain 2: MSHAEDNAGTRRDFLYHATAATGVVVTGAAVWPLINQMNASADVKAMSSIFVDVSAVEVGTQLTVKWRGKPVFIRRRDEKDIELARSVPLGALRDTSAENANKPGAEATDENRSLAAFDGTNTGEWLVMLGVCTHLGCVPMGDKSGDFGGWFCPCHGSHYDSAGRIRKGPAPRNLDIPVAAFVDETTIKLG
notes: petABC operon from plasmid pPET1, C-terminal Strep-tag on cytochrome b, expressed in R. capsulatus MT-RBC1 (host), DDM-solubilised from chromatophores, Strep-tag purified; homodimer of 3 catalytic subunits; with Cytochrome c1
Turning to B1, the Km (in general, the substrate concentration at which the rate is half of its maximum) worked out at 2.3 ± 0.5 µM and the kcat (as a rule, the maximal rate divided by the concentration of active sites) was 146 ± 9 s⁻¹.

B2: cytochrome bc1 (R. capsulatus bc1 complex) (Rhodobacter capsulatus; P0CY47:G332D) (protein)
chain 1: MSGIPHDHYEPKTGIEKWLHDRLPIVGLVYDTIMIPTPKNLNWWWIWGIVLAFTLVLQIVTGIVLAIDYTPHVDLAFASVEHIMRDVNGGWAMRYIHANGASLFFLAVYIHIFRGLYYGSYKAPREITWIVGMVIYLLMMGTAFMGYVLPWGQMSFWGATVITGLFGAIPGIGPSIQAWLLGGPAVDNATLNRFFSLHYLLPFVIAALVAIHIWAFHTTGNNNPTGVEVRRTSKADAEKDTLPFWPYFVIKDLFALALVLLGFFAVVAYMPNYLGHPDNYIQANPLSTPAHIVPEWYFLPFYAILRAFAADVWVVILVDGLTFGIVDAKFFDVIAMFGAIAVMALAPWLDTSKVRSGAYRPKFRMWFWFLVLDFVVLTWVGAMPTEYPYDWISLIASTYWFAYFLVILPLLGATEKPEPIPASIEEDFNSHYGNPAE
chain 2: MSHAEDNAGTRRDFLYHATAATGVVVTGAAVWPLINQMNASADVKAMSSIFVDVSAVEVGTQLTVKWRGKPVFIRRRDEKDIELARSVPLGALRDTSAENANKPGAEATDENRSLAAFDGTNTGEWLVMLGVCTHLGCVPMGDKSGDFGGWFCPCHGSHYDSAGRIRKGPAPRNLDIPVAAFVDETTIKLG
notes: as for B1
B2: the Km turned out to be 1.1 ± 0.2 µM and the kcat stood at 45 ± 2 s⁻¹.
